Measured values reported in the supplement of paper PMC11811203.

B1: THAP1; numbered along this chain (parent)
chain: MVQSCSAYGCKNRYDKDKPVSFHKFPLTRPSLCKEWEAAVRRKNFKPTKYSSICSEHFTPDCFKRECNNKLLKENAVPTIFLCTEPHDKKEDLLEPQEQLPPPPLPPPVSQVDAAIGLLMPPLQTPVNLSVFCDHNYTVEDTMHQRKRIHQLEQQVEKLRKKLKTAQQRCRRQERQLEKLKEVVHFQKEKDDVSERGYVILPNDYFEIVEVPA

Variants of: B1
Test: THAP1 transcriptional activity (GFP+/GFP- enrichment relative to wild-type constructs) (ratio to WT); higher = more THAP1 activity (PSMB5 reporter activation)
Settings: with PSMB5 promoter-GFP reporter
Outline: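 A lentiviral site-saturation library covering residues 2–213 of human THAP1, with each position changed to all 20 amino acids, was transduced in duplicate at MOI ~0.3 into THAP1-knockout HEK-293T cells with mClover3 knocked in at endogenous PSMB5. Five days later, BFP+ cells were sorted into GFP-dim and GFP-bright bins and variants were counted by Illumina sequencing of genomic DNA amplicons. Activity is the bright/dim read fold change averaged over replicates and divided by the mean of wild-type synonymous constructs.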

THAP1 transcriptional activity, by site and new letter:
D192: V 1.22; F 0.716; H 0.799; Q 1.23; S 0.615; C 0.816; W 1.13; N 0.81; G 1.19; E 0.835; T 1.12; M 1.27; L 1.22; R 0.932; I 0.817
Y205: P 0.805; W 2.45; M 1.5; I 1.07; K 0.717; E 1.09; G 1.84; L 2.1; C 1.28; Q 1.51; F 0.778; V 0.976; R 0.621; D 0.754; A 1.86; H 1.38; S 1.17; N 0.989
E210: A 0.354; M 0.913; D 1.07; G 0.666; I 1.23; P 0.35; F 0.823; C 1.03; L 0.744
D191: K 1.22; G 1.05; S 1.21; M 1.04; A 1.23; E 1.36; W 1.06; C 0.786; Y 0.661; R 1.31; F 0.695; I 0.874; H 0.987; L 1.26; T 1.12; P 1.02
G197: Q 1.29; M 1.03; P 0.913; E 1; T 1.41; V 1.8; A 1.19; R 0.711; N 1.56; D 0.656; H 1.76; W 1.8; K 1.33; I 1.03
I208: C 1.06; P 0.675; W 0.755; M 1.25; F 0.98; D 0.924; R 0.751; E 1.41; K 0.59; N 0.926; Y 1.14; V 1.2; Q 0.835; S 1.17; G 0.803; A 0.838
N203: C 0.834; Y 1.02; S 1.54; P 0.855; D 0.653; Q 0.904; F 0.728; I 1.01; G 1.23; W 0.535; V 0.886; R 0.497; M 0.934; E 1.14; T 1.15; H 1.32; A 1.28
V209: T 0.765; L 0.773; W 0.757; S 0.634; M 0.587; P 0.814; C 0.679; F 0.531; H 0.835; R 0.953; N 0.716; Y 0.755; D 0.517; I 0.823; Q 1.67; K 0.98; E 0.612
P202: Q 0.911; E 1.05; L 0.884; I 0.585; A 1.15; N 0.854; R 0.824; H 1.12; D 0.802; S 0.869; T 0.839; G 0.98; C 0.722; W 0.577; F 0.497; M 1.1; Y 1.04; K 0.636
E207: R 0.5; L 1.2; G 0.488; F 0.867; I 0.667; N 0.625; T 0.557; D 0.615; M 0.796; A 0.721; Y 1.02; S 0.559; P 0.59; V 1.29; Q 1.02; C 1.11; H 0.501
S194: E 1.11; V 1.06; L 0.808; R 0.998; Q 1.42; P 1.22; H 1.2; C 0.978; M 0.847; T 0.865; A 0.876; G 1.35; W 1.09
R196: A 0.861; Q 1.73; K 0.966; V 1.54; S 1.36; W 0.521; M 0.811; T 1.47; E 1.34; N 0.869; D 0.823; Y 1.11; H 1.21
F206: Q 0.86; V 1.41; C 1.5; S 1.09; H 1.05; K 1.08; P 0.832; R 0.87; N 0.873; D 1.24; T 1.04; I 1.27; E 1.11; Y 1.21; W 1.27
E189: W 1.16; S 1.03; R 0.881; T 1.08; V 0.53
D204: I 0.437; V 1.39; A 1.26; P 0.777; K 0.75; Q 0.749; E 1.22; C 0.753; W 0.525; G 0.311; Y 0.63; S 1.82; H 0.501; R 0.547; L 1.04; M 0.901; T 1.04
V199: C 0.947; H 0.609; Y 0.918; W 0.95; A 0.703; E 0.701; L 0.908; R 0.478; G 0.935; Q 0.623; K 0.555; T 0.697; N 0.42; M 0.728
L201: I 0.905; Q 0.653; C 1.03; W 0.749; R 0.9; E 0.953; A 0.829; Y 0.773; S 0.906; H 0.804; V 0.62; F 0.809; T 0.898; G 0.813; P 0.855; M 0.715; K 0.887; N 0.624; D 0.836
E195: R 1.03; D 1.15; K 1.37; C 0.903; G 1.07; S 1.16; H 0.381; A 0.865; V 1.02; W 0.467; Y 0.588; M 0.781; I 0.587; T 0.674; F 0.67; L 0.714; N 0.808; P 0.704
Y198: Q 1.51; G 0.536; W 0.672; L 1.02; I 1.25; V 1.01; C 0.806; T 1.13; N 1.66; E 1.15; R 0.78; F 0.947; P 0.891; D 0.763; K 0.631; M 1.02
K190: F 0.86; I 1.48; P 0.901; G 0.878; S 0.846; C 1.06; Q 0.807; V 1.21; D 0.645; W 0.724; T 1.35; E 0.903; H 0.708; R 0.923; Y 0.762; L 0.835; M 0.557
I200: Y 0.548; M 0.751; Q 1.09; T 0.694; L 1.27; V 1.05; R 0.412; H 0.546; P 0.688; W 0.555; A 0.558; F 0.819; E 0.762; D 0.703; C 0.615; K 0.283
V193: G 1.08; Y 0.789; K 0.694; H 0.804; L 1.21; E 0.835; N 1.24; D 0.999; T 1.25; M 0.559; F 1.06; I 0.883; C 1.04; A 0.82
